The text below walks through data of patent US6610541B2, “Recombinant, active caspases and uses thereof” (Thomas Jefferson University, priority 1998, dated 2003).

Peptide text beside a SMILES is read from it. * marks the point of attachment. Cbz = O=C(OCc1ccccc1)*; CH2F = FC*

One assay deals with T1, rev-caspase-6 (Homo sapiens, UniProt P55212).
T1 sequence (P55212 with tags, fused parts or gaps): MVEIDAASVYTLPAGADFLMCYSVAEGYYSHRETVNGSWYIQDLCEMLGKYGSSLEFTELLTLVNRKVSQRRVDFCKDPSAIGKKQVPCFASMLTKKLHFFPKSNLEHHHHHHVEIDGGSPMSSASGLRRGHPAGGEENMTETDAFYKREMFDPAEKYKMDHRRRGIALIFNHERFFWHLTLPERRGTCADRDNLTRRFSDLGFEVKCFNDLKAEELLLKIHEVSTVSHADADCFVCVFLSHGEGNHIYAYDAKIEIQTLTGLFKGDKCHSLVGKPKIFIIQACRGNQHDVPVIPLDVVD
Nature of the assay: Autocatalytic processing of in vitro translated rev-caspase-6 (SDS-PAGE/autoradiography). The class given is biochemical. Details: T7-tag (15 residues) (N); made in house; host or cells: in vitro translation in rabbit reticulocyte lysate (TNT Kit, Promega). Particulars: at the concentration used (zVAD-fmk 0-5 μM); p35 data not shown. On the procedure: (§1) FIGS. 2B and C are scanned images of autoradiograms representing SDS-PAGE analysis of the autoprocessing of rev-caspase-3 and -6, respectively in the presence of varying levels of selected caspase inhibitors. Rev-caspase-3 (FIG. 2B) or rev-caspase-6 (FIG. 2C) were in vitro translated in the presence of increasing concentrations of DEVD-CHO […]; (SEQ ID NO:52), or zVAD-fmk (0-5 μM). The translation products were then analyzed as in FIG. 2A. WT, wild-type.
(§2) ^35S-labeled caspases (wild-type and rev-caspases) were obtained by in vitro translation in the presence of ^35S-methionine using a coupled transcription/translation system in rabbit reticulocyte lysate using TNT Kit (Promega) according to the manufacturer's recommendations.
(§3) To test the effect of selected caspase inhibitors on the autocatalytic activity of rev-caspase-3 and 6, the rev-caspases were translated as in Example 3, but in the presence of varying amounts of inhibitors.

The target of a further assay is T2, rev-caspase-3 (Homo sapiens, UniProt P42574).
T2 sequence (P42574 with tags, fused parts or gaps): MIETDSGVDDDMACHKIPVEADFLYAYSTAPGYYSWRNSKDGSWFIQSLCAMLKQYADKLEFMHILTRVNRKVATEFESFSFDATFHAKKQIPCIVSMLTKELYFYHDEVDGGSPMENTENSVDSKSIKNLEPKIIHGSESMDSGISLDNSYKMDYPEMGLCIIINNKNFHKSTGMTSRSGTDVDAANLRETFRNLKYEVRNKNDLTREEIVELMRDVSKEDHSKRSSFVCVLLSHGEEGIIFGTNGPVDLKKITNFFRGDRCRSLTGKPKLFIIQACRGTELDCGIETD
Description: Autocatalytic processing of in vitro translated rev-caspase-3 (SDS-PAGE/autoradiography). Format: biochemical. Also noted: T7-tag (15 residues) (N); made in house; host or cells: in vitro translation in rabbit reticulocyte lysate (TNT Kit, Promega). The procedure: as §1, §2, §3

A further assay deals with lamin A. Nature of the assay: Cleavage of in vitro translated lamin A C-terminus by bacterially expressed caspases. Particulars: BL-21 bacterial extracts, 2 h at 37° C. Format: biochemical. The procedure:
(§4) FIGS. 3A and B are scanned images representing the SDS-PAGE analysis of the ability of rev-caspase-3 (imaged by western blot) and -6 (imaged by autoradiogram) to cleave PARP and lamin, respectively. In FIG. 3A purified human PARP was incubated with buffer (lane 1) or BL-21 bacterial extracts prepared from bacteria transformed with caspase-3 (lane 2), rev-caspase-3 (lane 3), caspase-6 (lane 4), rev-caspase-6 (lane 5) constructs or empty pET28a vector (lane 6) for 2 h at 37° C. The reaction products were then analyzed by SDS-PAGE and Western blotting with anti-human PARP antibody. In FIG. 3B a cDNA encoding the C-terminus of lamin A (amino acids) which contain the caspase-6 cleavage site (VEIDA); (SEQ ID NO:116), was amplified by PCR and in vitro translated in the presence of ^35S-methionine. The labeled product was incubated with buffer (lane 1) or the BL-21 bacterial extracts listed above for 2 h at 37° C., and then analyzed by SDS-PAGE and autoradiography. The cleavage products are indicated to the right.
(§5) At limited caspase concentrations, poly(ADP) ribose polymerase (PARP) is specifically cleaved by caspase-3 and 7 but not other caspases. Similarly, lamin is specifically cleaved by caspase-6 but not other caspases. […]

The target in assay [1] is T3, uncleavable rev-caspase-3 (Homo sapiens, UniProt P42574, D28A/D9A).
T3 construct: uncleavable rev-caspase-3 (B); made in house; host or cells: in vitro translation in rabbit reticulocyte lysate (TNT Kit, Promega)
T3 sequence (P42574 with tags, fused parts or gaps D9A/D28A): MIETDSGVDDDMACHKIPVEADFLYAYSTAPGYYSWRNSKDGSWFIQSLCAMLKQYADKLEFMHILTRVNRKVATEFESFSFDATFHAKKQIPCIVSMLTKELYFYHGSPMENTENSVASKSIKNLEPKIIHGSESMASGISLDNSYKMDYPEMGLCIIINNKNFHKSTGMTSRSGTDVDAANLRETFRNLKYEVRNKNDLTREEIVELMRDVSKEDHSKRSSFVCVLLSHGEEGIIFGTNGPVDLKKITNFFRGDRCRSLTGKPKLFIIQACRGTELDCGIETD
Nature of the assay: In vitro translation of uncleavable rev-caspase-3: His6-T7-tag processing. Format: biochemical. An excerpt:
FIG. 5A is a scanned image of an autoradiogram representing SDS-PAGE analysis of the enzymatic activity of uncleavable rev-caspase-3. Uncleavable rev-caspase-3 was in vitro translated in the absence or the presence of increasing concentrations of DEVD-CHO (SEQ ID NO:52),. The translation product contains a cleavable 35 residues-long His6-T7-tag at its N-terminus. The active site mutant rev-caspase-3 (Rev C/A) was used as a control. The p32 cleavage product without the His6-T7-tag is indicated to the right.
^35S-labeled caspases (wild-type and rev-caspases) were obtained by in vitro translation in the presence of ^35S-methionine using a coupled transcription/translation system in rabbit reticulocyte lysate using TNT Kit (Promega) according to the manufacturer's recommendations. […] Because the in vitro translated products are present at very low concentration in the reaction mixture, the observed cleavage must be attributed to an intramolecular processing within the caspase heterotetramer.
However, to follow the activity of this molecule a cleavable 35 residue long His6-T7-tag N-terminal to the IETD (SEQ ID NO:53) site was introduced (see FIG. 1B). […] Nevertheless, the translated molecule was active as evident from its ability to cleave its T7-tag to form the p32 species (FIG. 5). In the presence of 400 nM DEVD-CHO (SEQ ID NO:52), processing of the T7-tag was inhibited and only the full length p34 species can be seen. […] Thus by mimicking the mature caspase structure, it is possible to design a contiguous active caspase molecules.

In a further assay the test system is MCF-7 cells. Nature of the assay: Induction of apoptosis in transfected MCF-7 cells (round blue apoptotic cells). Format: cell-based, human. The procedure: FIGS. 4A and B are bar diagrams representing the ability of rev-caspase-3 and -6 to induce apoptosis in MCF-7 cells. MCF-7 cells were transiently transfected with either rev-caspase-3 (FIG. 4A), or rev-caspase-6 (FIG. 4B) expression constructs in combination with 4-fold of CrmA, p35 or Bcl-2 expression constructs, or 20 μM zVAD-fmk. Cells transfected with an empty vector or the wild-type caspase-3 or -6 were used as controls.
To express the rev-caspases in mammalian cells and assay their apoptotic activity, they were amplified with the T7-tag primer and the LS-reverse primers using the pET28a constructs as templates, and subcloned into the mammalian double expression vector pRSC-LacZ (MacFarlane et al., J. Biol. Chem., 272: 25417-25420, 1997; Tsang et al., Bio/Technology, 22: 68, 1997). This vector allows the expression of lacZ under the Rous Sarcoma virus promoter, and the test cDNA under the CMV promoter. To assay for apoptosis, MCF-7 or 293 cells were transfected, using the method commercially available as the Lipofect Amine method (Life Technologies, Inc.), with the pRSC-LacZ constructs in the presence or absence of different apoptosis-inhibitors. 30 h after transfection cells were stained with β-galactosidase and examined for morphological signs of apoptosis. The percentage of round blue apoptotic cells (mean±SD) were represented as a function of total blue cells under each condition (n≧3).
To determine the apoptotic activity of rev-caspase-3 and 6 in vivo, the rev-caspases were expressed in human MCF-7 cells, transfected as explained above in Example 2.

Another assay relates to human PARP. Description: Cleavage of PARP by bacterially expressed caspases (Western blot). The following applies: BL-21 bacterial extracts, 2 h at 37° C. Format: biochemical. On the procedure:
as §4, §5

`COC(=O)C[C@H](NC(=O)[C@H](C)NC(=O)[C@@H](NC(=O)OCc1ccccc1)C(C)C)C(=O)CF` [z-VAD-fmk] (Cbz-Val-Ala-Asp(OMe)-CH2F): the “inhibitory effect on rev-caspase-6 autocatalytic activity compared with rev-caspase-3” value against rev-caspase-6 is “nearly an equal inhibitory effect”. The “inhibitory effect on rev-caspase-3 autocatalytic activity compared with rev-caspase-6” value at rev-caspase-3 (at the concentration used (zVAD-fmk 0-5 μM), p35 data not shown) is “nearly an equal inhibitory effect”. Moreover, the “amount required relative to DEVD-CHO to obtain complete inhibition of caspase-3 activity” value at rev-caspase-3 (in vitro translation of rev-caspase-3) is recorded as around 10 fold.

B1: wild-type caspase-6: wild-type human caspase-6 (SEQ ID NO:21) (protein)
chain: MSSASGLRRGHPAGGEENMTETDAFYKREMFDPAEKYKMDHRRRGIALIFNHERFFWHLTLPERRGTCADRDNLTRRFSDLGFEVKCFNDLKAEELLLKIHEVSTVSHADADCFVCVFLSHGEGNHIYAYDAKIEIQTLTGLFKGDKCHSLVGKPKIFIIQACRGNQHDVPVIPLDVVDNQTEKLDTNITEVDAASVYTLPAGADFLMCYSVAEGYYSHRETVNGSWYIQDLCEMLGKYGSSLEFTELLTLVNRKVSQRRVDFCKDPSAIGKKQVPCFASMLTKKLHFFPKSN
B1: in the assay on lamin A, the cleavage of lamin result is given as “efficiently cleaved lamin”.

B2: Noncleavable Rev-caspase-3: rev-caspase-3 with DEVD site removed and Asp9 and 28 mutated (SEQ ID NO:35) (protein)
chain: T3 sequence (P42574 with tags, fused parts or gaps D9A/D28A)
modifications: OTHER INFORMATION: Uncleavable Rev-Caspase-3 co ntructed from human caspase -3
B2: in assay [1], the “activity of translated molecule (cleaves its T7-tag to form the p32 species)” value was “active” and the “cleavage between the two subunits upon in vitro translation” value is reported as “no evidence of cleavage between the two subunits”. The “induction of apoptosis on expression in cells” value in the assay on MCF-7 cells is listed as “potently induced apoptosis”.

B3: rev-caspase-3: contiguous caspase-3 with small subunit fused N-terminal to large subunit, DEVDG cleavage site between them (SEQ ID NO:34) (protein)
chain: T2 sequence (P42574 with tags, fused parts or gaps)
modifications: OTHER INFORMATION: Rev-Caspase-3 contructed fro m human caspase -3
Turning to B3, the “cleavage of PARP” value in the assay with human PARP was “efficiently cleaved PARP”. The “apoptosis in transfected cells” value in the assay with MCF-7 cells (30 h after transfection) is around 90%. In the assay with rev-caspase-3 (rabbit reticulocyte lysate, 35S-methionine), the “autocatalytic processing in the in vitro translation reaction (rev-caspase-3 constructs)” value is given as “able to undergo autocatalytic processing”.

B4: wild-type caspase-3: wild-type human caspase-3 (SEQ ID NO:12) (protein)
chain: MENTENSVDSKSIKNLEPKIIHGSESMDSGISLDNSYKMDYPEMGLCIIINNKNFHKSTGMTSRSGTDVDAANLRETFRNLKYEVRNKNDLTREEIVELMRDVSKEDHSKRSSFVCVLLSHGEEGIIFGTNGPVDLKKITNFFRGDRCRSLTGKPKLFIIQACRGTELDCGIETDSGVDDDMACHKIPVDADFLYAYSTAPGYYSWRNSKDGSWFIQSLCAMLKQYADKLEFMHILTRVNRKVATEFESFSFDATFHAKKQIPCIVSMLTKELYFYH
Take B4: the “cleavage of PARP” value with human PARP is “efficiently cleaved PARP”.
